Test [1] has as its target T1, alpha-Klotho with endogenous FGFRs on HEK293-alphaKlotho cells. The experiment in a line: FACS competition on HEK293-alphaKlotho cells: peptide 0.01 to about 1000 nM against 0.2 ug/mL full-length human FGF23, geo mean of PE intensity.
For test [2], the target named is T1, alpha-Klotho with endogenous FGFRs on …. The experiment in a line: cell-based or functional assay.
In test [3] the target is FGFR1c and alpha-klotho, human, on BAF3 cells (Example 7) (human, UniProt P11362 22-822; Q9UEF7 34-1012). The experiment in a line: cell-based or functional assay.
The target of test [4] is T1, alpha-Klotho with endogenous FGFRs on …. The experiment in a line: FACS competition on HEK293-alphaKlotho cells against a sub-saturating dose of FGF23. The source says: IC50 values were derived from the resulting inhibition binding curves (FIG. 7).
Test [5] concerns the target T2, FGFR1c/alpha-klotho on BaF3 cells (Example 12) (Homo sapiens (Human), UniProt P11362 22-822; Q9UEF7 34-1012).
T2 construct: also called BaF3 cells expressing FGFR1c and αklotho; BAF3 lines engineered to express FGFR1c/αklotho
The experiment in a line: FACS competitive binding on BaF3 cells expressing FGFR1c and Klotho, against 0.2 ug/mL FGF-23; drug 0 to 2430 nM; the number stands beside the legend entry under the title 'FACS CO… BINDING IC50', the unit is that of the axis (nM DRUG).

In test [6] the target is T1, alpha-Klotho with endogenous FGFRs on …. Briefly: FACS competition on HEK293-alphaKlotho cells: peptide 0.01 to about 1000 nM against 0.2 ug/mL full-length human FGF23, geo mean of PE intensity. This is another data set of the same source.
The target is the same in test [7]. The description is as above. The source holds these as a separate data set.
In test [8] the target is T3, FGFR4/alpha-klotho on BaF3 cells (Example 12) (Homo sapiens (Human), UniProt P22455 22-802; Q9UEF7 34-1012).
T3 construct: also called BaF3 cells expressing FGFR4 and αklotho; BaF3-FGFR4/αklotho cells
Briefly: FACS competitive binding on BaF3 cells expressing FGFR4 and Klotho, against 0.2 ug/mL FGF-23; drug 0 to 2430 nM; the number stands beside the legend entry under the title 'FACS CO… BINDING IC50', the unit is that of the axis (nM DRUG).

Test [9] deals with FGFR1c and alpha-klotho, murine, on BAF3 cells (Example 7) (mouse, UniProt P16092 22-822; O35082 35-1014). The experiment in a line: cell-based or functional assay.
Test [10] has as its target T4, FGFR1c/alpha-klotho receptor complex, murine, pre-formed (SPR analyte) (mouse, UniProt P16092 22-376; O35082 35-982).
T4 construct: also called pre-formed receptor complex (mouse)
T4 sequence (looked up) 1: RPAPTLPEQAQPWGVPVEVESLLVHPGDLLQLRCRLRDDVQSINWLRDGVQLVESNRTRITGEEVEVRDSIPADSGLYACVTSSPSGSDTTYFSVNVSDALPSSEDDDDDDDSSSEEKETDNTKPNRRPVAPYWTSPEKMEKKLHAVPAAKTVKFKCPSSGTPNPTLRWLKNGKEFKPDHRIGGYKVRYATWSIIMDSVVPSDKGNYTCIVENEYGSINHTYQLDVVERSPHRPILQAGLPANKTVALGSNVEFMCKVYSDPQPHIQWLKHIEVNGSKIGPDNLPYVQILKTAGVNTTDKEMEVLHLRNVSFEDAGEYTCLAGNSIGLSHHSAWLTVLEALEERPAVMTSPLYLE
T4 sequence (looked up) 2: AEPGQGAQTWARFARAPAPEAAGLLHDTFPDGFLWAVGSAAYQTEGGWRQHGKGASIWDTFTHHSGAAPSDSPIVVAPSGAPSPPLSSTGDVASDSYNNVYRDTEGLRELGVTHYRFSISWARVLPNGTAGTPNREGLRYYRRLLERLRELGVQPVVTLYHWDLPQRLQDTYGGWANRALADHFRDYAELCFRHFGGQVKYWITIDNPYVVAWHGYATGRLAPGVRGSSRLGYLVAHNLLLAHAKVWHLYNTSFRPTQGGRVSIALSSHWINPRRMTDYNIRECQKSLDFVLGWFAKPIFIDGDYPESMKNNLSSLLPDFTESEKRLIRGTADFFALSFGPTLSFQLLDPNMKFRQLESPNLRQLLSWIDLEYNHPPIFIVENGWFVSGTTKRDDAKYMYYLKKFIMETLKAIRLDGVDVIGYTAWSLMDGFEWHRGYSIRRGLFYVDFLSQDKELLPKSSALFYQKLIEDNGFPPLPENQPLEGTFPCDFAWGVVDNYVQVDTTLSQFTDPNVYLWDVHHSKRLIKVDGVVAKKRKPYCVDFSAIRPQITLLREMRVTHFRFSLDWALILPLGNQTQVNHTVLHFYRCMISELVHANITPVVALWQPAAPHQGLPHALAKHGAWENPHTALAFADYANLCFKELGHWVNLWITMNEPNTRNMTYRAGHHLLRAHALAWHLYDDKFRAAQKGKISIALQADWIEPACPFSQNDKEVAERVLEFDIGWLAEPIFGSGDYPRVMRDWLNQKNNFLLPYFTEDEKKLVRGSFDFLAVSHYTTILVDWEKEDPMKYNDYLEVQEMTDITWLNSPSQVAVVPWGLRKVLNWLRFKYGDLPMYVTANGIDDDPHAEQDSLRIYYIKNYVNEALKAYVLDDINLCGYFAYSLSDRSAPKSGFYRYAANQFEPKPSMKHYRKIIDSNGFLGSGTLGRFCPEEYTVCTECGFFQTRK
The experiment in a line: SPR competition; full-length murine FGF23 on the Biacore chip, set amount of pre-formed receptor complex with increasing c-tail construct. The method, then:
The potency of the human and murine constructs were determined via both competitive inhibition using SPR and cellular viability assays (Cell Titer Glo). […] Experiments were done in a species specific manner meaning that all components were from a single species, either mouse or human. For the functional experiments, BAF3 cells were engineered to stably express FGFR1c and α-klotho. BAF3 cells are dependent on IL-3 for growth. […] Once again this was done in a species specific manner.

Data on five molecules can be found in patent US20170226172A1 (NEW YORK UNIVERSITY, published 2017).

Read-outs that look alike come from different tables or passages of the source.

B1: Human FGF23 c-tail 69 (-3 amino acid construct) peptide (peptide)
peptide: SAEDDSERDPLNVLKPRARMTPAPASCSQELPSAEDNSPMASDPLGVVRGGRVNTHAGGTGPEGCRPFA
notes: also called truncated FGF23 c-tail peptide, 69 amino acids
B1 registered an IC50 in [1] of 2.8 nM.

B2: Human Wild Type FGF23 c-tail Fc (FGF23-c-tail-FC1), mature (Fc fusion)
chain: EPKSCDKTHTCPPCPAPEAAGAPSVFLFPPKPKDTLMISRTPEVTCVVVDVSHEDPEVKFNWYVDGVEVHNAKTKPREEQYNSTYRVVSVLTVLHQDWLNGKEYKCKVSNKALPAPIEKTISKAKGQPREPQVYTLPPSREEMTKNQVSLTCLVKGFYPSDIAVEWESNGQPENNYKTTPPVLDSDGSFFLYSKLTVDKSRWQQGNVFSCSVMHEALHNHYTQKSLSLSPGGGGGSSAEDDSERDPLNVLKPRARMTPAPASCSQELPSAEDNSPMASDPLGVVRGGRVNTHAGGTGPEGCRPFAKFI
notes: Made in CHO cells; also called HuFGF23 c-tail Fc; huFGF23-Fc
As for B2, in [2], the “IC50, inhibition of FGF23-mediated Egr1-luciferase activity in HEK293 cells expressing alpha-klotho (after assay optimization)” value came out at 21.5 nM and the “IC50, inhibition of FGF23-mediated Egr1-luciferase activity in HEK293 cells expressing alpha-klotho (prior to assay optimization)” value worked out at 202 nM. The “IC50, cellular viability (Cell Titer Glo) of BAF3 cells expressing FGFR1c and alpha-klotho kept alive by FGF23” value in test [3] is 53 nM. Moreover, the “IC50 (read off the curve)” value in [4] is ~10 nM. For the same molecule, in [5], the IC50 worked out at 20.4 nM.

B3: Human FGF23 c-tail 70 (-2 amino acid construct) peptide (peptide)
peptide: SAEDDSERDPLNVLKPRARMTPAPASCSQELPSAEDNSPMASDPLGVVRGGRVNTHAGGTGPEGCRPFAK
notes: also called truncated FGF23 c-tail peptide, 70 amino acids
Molecule B3 gave a half-inhibitory concentration (IC50) in [6] of 2.4 nM.

B4: Wild Type Human FGF23 c-tail 180-251 (72 amino acid peptide) (peptide)
peptide: SAEDDSERDPLNVLKPRARMTPAPASCSQELPSAEDNSPMASDPLGVVRGGRVNTHAGGTGPEGCRPFAKFI
notes: also called FGF23 c-tail peptide; unconjugated FGF23 c-tail peptide
With B4, the “IC50, inhibition of FGF23 signaling (Egr1-luciferase) in HEK293 cells expressing alpha-klotho (prior to assay optimization)” value in [2] came to 81.9 nM. The “IC50 (read off the curve)” value in [4] was ~20 nM. In addition, the figures for the 50% inhibitory concentration (IC50) in test [7], in [8] and in test [5] were 2.9 nM, 23 nM and 15.4 nM, respectively.

B5: Wild Type Murine FGF23 c-tail Fc (muFGF23-c-tail-FC1), mature (Fc fusion)
chain: VPRDAGCKPCICTVPPVSSVFIFPPKPKDVLTITLTPKVTCVVVDISKDDPEVQFSWFVDDVEVHTAQTQPREEQFNSTFRSVSELPIMHQDWLNGKAFACAVNSAAFPAPIEKTISKTKGRPKAPQVYTIPPPKEQMAKDKVSLTCMITDFFPEDITVEWQWNGQPAENYKNTQPIMDTDGSYFVYSKLNVQKSNWEAGNTFTCSVLHEGLHNHHTEKSLSHSPGGGGGSSAEDPPERDPLNVLKPRPRATPVPVSCSRELPSAEEGGPAASDPLGVLRRGRGDARGGAGGADRCRPFPRFV
notes: also called Murine FGF23-Fc; surrogate molecule
On to B5, for which the “IC50, cellular viability (Cell Titer Glo) of BAF3 cells expressing FGFR1c and alpha-klotho kept alive by FGF23” value in [9] was 35 nM. In addition, the Ki in test [10] was 10 nM.
